Experimental data reported in patent US20100021473A1 (DOMANTIS, published 2010).
Substitutions are numbered along the chain they refer to. Blank lines part the entries; values can stand above or below the binder they belong to.

Tests used:
[1] = target: T1, CD38 and CD138 co-expressed on cells (CD38+/CD138+ double positive cells) (UniProt P28907 1-300; P18827 23-310); assay: cell-based or functional assay
T1 construct: whole, on cells; Two separate membrane proteins on the same cell, not a complex; also called RPMI8226; OPM2

[2] = target: T1, CD38 and CD138 co-expressed on cells …; assay: FACS cell binding titration on OPM2 cells (CD38+/CD138+), arithmetic mean fluorescence. The table prints no unit; the unit is taken from the x axis 'log conc in nm' (nanomolar).
Experimental: (§1) The determination of cell binding by FACS was carried out as follows: cells were centrifuged at 250 g for 5 minutes and the growth medium was removed. The cells were resuspended in FACS incubation buffer at 4° C. at a density of 2×10⁶ cells/ml. The cells were blocked by incubating for 15 minutes at 4° C. in FACS incubation buffer. Fifty microliters of 2× stock of primary antibody (anti-CD38 FITC, anti-CD138 FITC or mIgG1 FITC conjugated isotype control (all BD Biosciences) was added; or dAb was added to cells in FACS incubation buffer and incubated for 30-60 minutes at 4° C. The cells were then washed once in FACS incubation buffer. One hundred microliters of secondary antibody (rabbit anti-Vk) was added to cells in FACS incubation buffer and incubated 30-60 minutes at 4° C. The cells were washed once in FACS incubation buffer. Then 100 ul of 1× tertiary antibody was added to the cells in FACS incubation buffer and incubated for 30-60 mins at 4° C. (for dAbs the tertiary antibody is anti-rabbit FITC (Sigma)). The cells were washed twice in FACS incubation buffer. The cell pellet was resuspend in 200 ul FACS incubation buffer+viable cell marker (BD Viaprobe). The cells were then analyzed by flow cytometry.
Anti-CD38 and anti-CD138 affinity matured dAbs were paired to create dual specific ligands by cloning an anti-CD38 dAb and an anti-CD138 dAb into a dual expression vector. To determine if the increased affinity of the monomers was reflected in increased binding affinity of the dual specific ligand, a range of the affinity matured anti-CD38 dAbs were paired with the anti-CD138 dAb DOM12-45, a range of affinity matured anti-CD138 dAbs were paired with anti-CD38 dAbs, and a range of affinity matured anti-CD38 dAbs and affinity matured anti-CD138 dAbs were paired. All dual specific ligands were expressed in E. coli and purified using protein L agarose followed by Resource S cation exchange chromatography when required. The binding affinity of the dual specific ligands was assessed by FACS as described previously. In this study, a range of concentrations was used to allow determination of EC50.

[3] = target: CD138 and CD56 co-expressed on cells (CD138+/CD56+ double positive cells) (UniProt P18827); assay: cell-based or functional assay
CD138 on cells [4] = target: T2, CD138 on cells (UniProt P18827 23-310); assay: FACS dot plot (FSC-H against FL1-H) on H647 cells (CD38-/CD138+), ligand at 50 nM
T2 construct: whole, on cells; Endogenous CD138 on cell lines used in FACS; also called DOM12; syndecan-1
T2 sequence (looked up): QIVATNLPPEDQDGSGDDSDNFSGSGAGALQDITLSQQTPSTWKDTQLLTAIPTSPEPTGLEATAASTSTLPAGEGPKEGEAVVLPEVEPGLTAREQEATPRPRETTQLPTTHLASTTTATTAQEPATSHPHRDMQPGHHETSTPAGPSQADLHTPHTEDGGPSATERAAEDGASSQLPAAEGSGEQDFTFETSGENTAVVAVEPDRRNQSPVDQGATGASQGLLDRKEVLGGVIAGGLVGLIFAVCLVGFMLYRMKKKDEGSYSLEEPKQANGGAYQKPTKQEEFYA

CD38 on cells = target: T3, CD38 on cells (UniProt P28907 1-300); assay: FACS on RPMI cells (CD38+/138+)
T3 construct: whole, on cells; Endogenous CD38 on cell lines used in FACS or microscopy; also called DOM11; T10
Experimental: (§2) All dAbs were analysed by FACS on antigen positive and negative cell lines using the following method.
as §1

CD138 on cells [5] = target: T2, CD138 on cells; assay: FACS on HUVEC cells (CD38-/CD138+)
Experimental: as §2, §1

[6] = target: T4, CEA immobilised on Biacore CM5 chip (UniProt P06731 35-685, limits assumed); assay: Biacore, CEA immobilised
T4 construct: also called DOM13
T4 sequence (looked up): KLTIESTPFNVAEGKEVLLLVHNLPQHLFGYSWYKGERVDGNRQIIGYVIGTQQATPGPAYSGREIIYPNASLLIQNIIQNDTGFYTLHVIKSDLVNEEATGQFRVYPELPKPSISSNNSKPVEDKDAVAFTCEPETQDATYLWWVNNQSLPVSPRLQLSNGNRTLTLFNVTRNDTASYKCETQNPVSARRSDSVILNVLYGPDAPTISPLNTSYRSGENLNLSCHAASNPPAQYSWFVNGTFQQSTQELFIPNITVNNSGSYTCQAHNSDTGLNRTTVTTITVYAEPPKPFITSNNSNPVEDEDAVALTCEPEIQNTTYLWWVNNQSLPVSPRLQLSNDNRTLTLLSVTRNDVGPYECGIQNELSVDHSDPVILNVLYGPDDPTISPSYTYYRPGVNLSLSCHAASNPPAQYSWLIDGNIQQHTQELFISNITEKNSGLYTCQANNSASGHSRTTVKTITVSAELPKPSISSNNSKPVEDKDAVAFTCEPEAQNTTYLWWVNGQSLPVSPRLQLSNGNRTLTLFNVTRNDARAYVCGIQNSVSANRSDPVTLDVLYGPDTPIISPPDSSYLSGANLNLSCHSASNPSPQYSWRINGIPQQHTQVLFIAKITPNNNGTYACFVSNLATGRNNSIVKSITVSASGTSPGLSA
Experimental: (§3) Anti-CD38, anti-CEA and anti-CD56 dAbs that were identified as FACS positive clones were in addition analysed by Biacore using the following procedure. The CM5 chip surface was activated by flushing 1:1 EDC/NHS (0.4M1-ethyl-3-(3-dimenthylaminopropyl)-carbodiimide in water; 0.1 M N-hydroxysuccinimide in water) at a flow rate of 5 uL/min for 10 minute contact time. CD38 was immobilised at 500 nM in Acetate buffer pH4 at 5 uL/min this was repeated until the RUs reached between 500 and 1000 (low density). CEA and CD56 were coupled in acetate buffer pH 4.5. Any excess reactive groups were deactivated by running 1M ethanolamine-HCl over the CM5 chip (again 5 uL/min for 7 mins). The affinities of the anti-CD38, anti-CEA and anti-CD56 dAbs were measured on the biacore as described above.

NCA on H647 cells = target: T5, NCA on H647 cells (UniProt P40199 35-320, limits assumed); assay: FACS on H647 cells (CEA-/NCA+)
T5 construct: whole, on cells; Its identity is an inference
T5 sequence (looked up): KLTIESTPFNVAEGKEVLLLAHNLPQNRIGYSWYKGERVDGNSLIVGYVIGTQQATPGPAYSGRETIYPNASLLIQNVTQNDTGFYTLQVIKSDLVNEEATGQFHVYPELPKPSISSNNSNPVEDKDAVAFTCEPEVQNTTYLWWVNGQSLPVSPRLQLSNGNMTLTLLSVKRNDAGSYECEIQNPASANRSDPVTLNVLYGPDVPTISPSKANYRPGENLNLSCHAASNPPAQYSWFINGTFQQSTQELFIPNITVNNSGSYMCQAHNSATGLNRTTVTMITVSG
Experimental: as §2, §1

[7] = target: T6, CD38 immobilised on Biacore CM5 chip (UniProt P28907 43-300, limits assumed); assay: Biacore, CD38 immobilised
T6 construct: also called DOM11
Experimental: as §3
Affinity maturation libraries were created for the anti-CD38 dAbs DOM11-3 and DOM11-30 by error prone PCR. […] Initial screening was carried out by BIAcore (as described previously) and subsequently by FACS.

[8] = target: T6, CD38 immobilised on Biacore CM5 chip; assay: SPR (Biacore), CD38 immobilised on CM5 chip
Experimental: as §3

CD138 on cells [9] = target: T2, CD138 on cells; assay: FACS on RPMI cells (CD38+/138+)
Experimental: as §2, §1

% internalized [1]: 8%
B1: DOM11-30/DOM12-45 anti-CD38/anti-CD138 dual specific ligand (bispecific antibody, part only; not given: linker between dAbs, not shown: small tags and cut ends)
chain, part: DIQITQSPSSLSASVGDRITITCRASQKIENDLAWYQQKPGKAPKLLIYYTSILQSGVPSRFSGSGSGTDFTLTISSLQPEDFATYYCQQRRYVPATFGQGTKVEIKRDIQMTQSPSSLSASVGDRVTITCRASQDIGDRLRWYQQKPGKAPKLLIYHGSRLESGVPSRFSGSRSGTDFTLTISSLQPEDFATYYCQQQWFRPYTFGQGTKVEIKR

EC50 [2]: 16.7 nM
B2: DOM 11-3-15/DOM 12-45-2 (bispecific antibody, V domains shown)
V domain 1: DIQMTQSPSSLSASVGDRVTITCRASQNIDSRLSWYQQKPGKAPKLLIYRASVLQSGVPSRFSGTGSGTDFTLTISSLQPEDFATYYCQQWDMFPLSFGQGTKVEIKR
V domain 2: DIQMTQSPSSLSASVGDRVTITCRASQDIGGRLRWYQQKPGKAPKLLIYHGSRLDSGVPSRFSGSRSGADFTLTISSLQPEDFATYYCQQQWYRPYTFGQGTKVEIKR

EC50 [2]: 11.9 nM
B3: DOM 11-3-20/DOM 12-45-2 (bispecific antibody, V domains shown)
V domain 1: B2 V domain 1 with M4T, A51S, T65S, S97M
V domain 2: B2 V domain 2

EC50 [2]: 11 nM
B4: DOM 11-3-23/DOM 12-45-2 (bispecific antibody, V domains shown)
V domain 1: B2 V domain 1 with T65S, S97A, K103R
V domain 2: B2 V domain 2

binding result (CD38 on cells): binds
binding result (CD138 on cells [5]): no binding
B7: DOM11-7 (other)
chain: DIQMTQSPSSLSASVGDRVTITCRASQYINTLLSWYQQKPGKAPKLLIYAQSRLQSGVPSRFSGSGSGTDFTLTISSLQPEDFATYYCQQFAFRPYTFGQGTKVEIKR
notes: Anti-CD38 dAb monomer

Kd [7]: 190 to 230 nM
Kd [8]: 150 nM
B9: DOM11-30 (other)
chain: DIQITQSPSSLSASVGDRITITCRASQKIENDLAWYQQKPGKAPKLLIYYTSILQSGVPSRFSGSGSGTDFTLTISSLQPEDFATYYCQQRRYVPATFGQGTKVEIKR
notes: Anti-CD38 dAb monomer

binding result (CD138 on cells [9]): binds
B10: DOM12-17 (other)
chain: B9 chain with I4M, I19V, K28S, E30G, D32N, A34L, I53R, Y93T, V94H, A96H
notes: Anti-CD138 dAb monomer

binding result (CD138 on cells [9]): binds
B13: DOM12-26 (other)
chain: DIQMTQSPSSLSASVGDRVTITCRASQDIFTKLRWYQQKPGKAPRLLIYAGSRLQSGVPSRFSGSGSGTDFTLTISSLQPEDFATYYCQQVKQKPWTFGQGTKVEIKR
notes: Anti-CD138 dAb monomer

Second part, the binder before the results:

B5: DOM14-23/DOM12-45 anti-CD138/anti-CD56 dual specific ligand (bispecific antibody, part only; not given: linker between dAbs, not shown: small tags and cut ends)
chain, part: DIQMTQSPSSLSASVGDRVTITCRASQDIFPFLNWYQQKPGKAPELLIYRASILHSGVPSRFSGSGSGTDFTLTISSLQPEDFATYYCQQIARSPRTFGQGTKVEIKRDIQMTQSPSSLSASVGDRVTITCRASQDIGDRLRWYQQKPGKAPKLLIYHGSRLESGVPSRFSGSRSGTDFTLTISSLQPEDFATYYCQQQWFRPYTFGQGTKVEIKR
% internalized [3]: 43%

B6: DOM11-3/DOM12-45 anti-CD38/anti-CD138 dual specific ligand (bispecific antibody)
chain: DIQMTQSPSSLSASVGDRVTITCRASQNIDSRLSWYQQKPGKAPKLLIYRTSVLQSGVPSRFSGSGSGTDFTLTISSLQPEDFATYYCQQWDMFPLTFGQGTKVEIKRSSGGGGSGGGGSGGGGSGGGGSGGGGSTDIQMTQSPSSLSASVGDRVTITCRASQDIGDRLRWYQQKPGKAPKLLIYHGSRLESGVPSRFSGSRSGTDFTLTISSLQPEDFATYYCQQQWFRPYTFGQGTKVEIKR
notes: In-line fusion of two dAbs, expressed in E. coli; also called DOM11-3/12-45
percent of cells right of the FL1-H gate line (CD138 on cells [4]): 3%
EC50 [2]: 44.4 nM

B8: DOM13-25 (other)
chain: B7 chain with Y28S, N30G, T31P, L32W, A50Q, Q51V, F91N, A92L, F93A, R94P
notes: Anti-CEA dAb monomer
Kd [6]: 100 to 200 nM
binding result (NCA on H647 cells): no binding

B11: DOM13-74 (other)
chain: DIQMTQSPSSLSASVGDRVTITCRASQPIKMMLSWYQQKPGKAPKLLIYNNSTLQSGVPSRFSGSGSGTDFTLTISSLQPEDFATYYCQQYRRWPYTFSQGTKVEIKR
notes: Anti-CEA dAb monomer
Kd [6]: 100 to 200 nM
binding result (NCA on H647 cells): no binding

B12: DOM13-59 (other)
chain: DIQMTQSPSSLSASVGDRVTITCRASQKIMTHLRWYQQKPGKAPKLLIYGGSHLQSGVPSRFSGSGSGTDFTLTISSLQPEDFATYYCQQTWVSPMTFGQGTKVEIRR
notes: Anti-CEA dAb monomer
Kd [6]: 400 to 800 nM
binding result (NCA on H647 cells): no binding
